Measurements reported in patent US20110135573A1, “METALLOPROTEINASE 9 AND METALLOPROTEINASE 2 BINDING PROTEINS” (DYAX CORP., priority 2009, published 2011).

What was measured:
MMP-9 [1] = biological target: T1, MMP-9 (Homo sapiens, UniProt P14780); assay: Binding of non-inhibiting Fabs to MMP-9 (apparent KD, dissociation t1/2, TIMP-1 competition); details: Fab
Target sequence in this assay (P14780 94-707): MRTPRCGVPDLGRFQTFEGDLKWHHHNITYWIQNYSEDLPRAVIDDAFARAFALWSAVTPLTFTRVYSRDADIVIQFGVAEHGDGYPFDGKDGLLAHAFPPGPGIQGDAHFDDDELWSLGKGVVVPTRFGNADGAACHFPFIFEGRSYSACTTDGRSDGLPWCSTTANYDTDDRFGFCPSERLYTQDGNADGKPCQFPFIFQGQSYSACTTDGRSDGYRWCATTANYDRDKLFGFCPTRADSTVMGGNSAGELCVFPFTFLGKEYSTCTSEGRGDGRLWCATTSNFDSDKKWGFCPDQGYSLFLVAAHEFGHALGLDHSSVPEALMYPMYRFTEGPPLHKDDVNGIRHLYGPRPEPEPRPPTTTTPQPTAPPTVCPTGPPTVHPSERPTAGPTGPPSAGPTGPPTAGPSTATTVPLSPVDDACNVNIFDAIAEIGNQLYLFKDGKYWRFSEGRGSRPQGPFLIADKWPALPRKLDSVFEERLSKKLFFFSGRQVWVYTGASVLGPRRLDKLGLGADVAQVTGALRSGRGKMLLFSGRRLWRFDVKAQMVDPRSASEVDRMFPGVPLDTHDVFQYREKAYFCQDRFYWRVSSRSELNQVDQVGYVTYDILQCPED

MMP-9 [2] = biological target: T1, MMP-9; assay: Initial screen of sFabs/IgG1s for inhibition of MMP-9 at 1 μM; type: biochemical
Method: After sequencing analysis, the phage display were converted into sFabs and then into IgG1s. Their ability to inhibit MMP-9 and other MMPs (1, 3, 7, 8, 9, 10, 12, 13, 14) was determined by usual means. Compounds were initially screened at 1 μM against MMP-9 and those compounds that inhibited MMP-9 >80% were subjected to additional screens against purified recombinant human MMP-2 (APMA activated enzyme) and other MMPs. For these additional screens, an IC50 value was determined. Ki values and specificities of the inhibitors were determined as described below.
Target sequence in this assay (P14780 94-707): as above

mouse MMP-2 = biological target: T2, mouse MMP-2 (Mus musculus, UniProt P33434); assay: Enzyme inhibition assay (single point inhibition, IC50/Ki,app), substrate M-2350; type: biochemical; details: for Ki: IgG, Table 12; for inhibition of mouse MMP-2 (in words): light chain shuffled antibodies
T2 construct: purchased R&D Systems 924-MP-010
Method: (§1) 343 unique sFabs from the anti-MMP-9/-2 M237-D02 affinity maturation campaign were discovered by phage display, produced in small scale (6 mL cultures in deep 24-well plates) and screened to select inhibitors with sub-nanomolar potency against the human enzymes and at least single-digit nanomolar potency toward the mouse orthologues. […] Isolates which appeared potent against both human and mouse MMP-2 were then subjected to IC50 analysis against hMMP-9. Sub-nanomolar inhibitors of hMMP-9 were further tested by IC50 analysis against mMMP-9 and h/m MMP-2, if sufficient small-scale sFab material was available. Thirteen potential h/m MMP-9/-2 sFab inhibitors were then produced in medium scale (250 mL cultures in flasks) and retested for h/m MMP-9 and h/m MMP-2 inhibition. Five potential lead candidates were reformatted as IgGs and retested in enzyme inhibition assays.
(§2) Human MMP-9 (Biomol #SE-244), mouse MMP-9 (R&D Systems #909-MM-010), human MMP-2 (Biomol #SE-237) and mouse MMP-2 (R&D Systems #924-MP-010) were tested at final concentrations of 1 nM, 0.25-0.4 nM, 2.5 nM and 0.2 nM, respectively. Target enzymes were incubated with inhibitor for two hours at 30° C. in reaction buffer (50 mM Tris-HCl pH 7.5, 150 mM NaCl, 5 mM CaCl2, 0.05% Brij-35) in a total volume of 90 μL using a white 96 well plate (Costar). Reactions contained 5 μL of small-scale sFab stock solution (average concentration of 500 nM) for single point inhibition analysis or a concentration series of sFab/IgG for IC50 Ki,app determinations. Commercially available anti-MMP-9 antibodies (Millipore mAb 13415 and R&D Systems polyclonal IgG #AB911) were tested by IC50 analyses using 100 nM and 500 nM as the highest inhibitor concentrations, respectively. An anti-MMP-2 antibody (R&D Systems polyclonal IgG #AF902) was similarly tested with 200 nM as the highest inhibitor concentration. Reactions were initiated by the addition of 10 μL of a 10× concentrated stock of substrate, Mca-Lys-Pro-Leu-Gly-Leu-Dap(Dnp)-Ala-Arg-NH2, (Bachem M-2350), at final concentration of 10 μM and monitored at 30° C. in a Molecular Devices' Gemini fluorescence plate reader. The excitation and emission wavelengths were set at 328 nm and 393 nm, respectively. Kinetic data were acquired by the increase in fluorescence, and initial rates for each condition were plotted against the total inhibitor concentration. Reactions were performed in duplicates and all data replicates were plotted in a single graph and fit to the following equation^1:
(§3) Where A=initial rate observed at each inhibitor concentration; Ao=initial rate observed in the absence of inhibitor; Ainh=initial rate observed for the enzyme inhibitor complex; Inh=concentration of inhibitor; E=total enzyme concentration (treated as a floated parameter); and Ki,app=apparent equilibrium inhibition constant.

Mouse MMP-9 = biological target: T3, Mouse MMP-9 (Mus musculus, UniProt P41245); assay: as above; type: biochemical; details: light chain shuffled antibodies
T3 construct: purchased R&D Systems 909-MM (909-MM-010)
Method: as §1, §2, §3

human MMP-2 = biological target: T4, human MMP-2 (Homo sapiens, UniProt P08253); assay: as above; type: biochemical; details: light chain shuffled antibodies
T4 construct: purchased Biomol SE-237
Method: as §1, §2, §3

MMP-9 [3] = biological target: T1, MMP-9; assay: as above; type: biochemical; set-up: Human MMP-9 catalytic domain (BIOMOL, SE-244); purchased BIOMOL SE-244; details: light chain shuffled antibodies
Method: as §1
as §2, with “Commercially available anti-MMP-9 antibodies (Millipore mAb 13415 and R&D Systems polyclonal IgG #AB911) were tested by IC50 analyses using 100 nM and 500 nM as the highest inhibitor concentrations, respectively. An anti-MMP-2 antibody (R&D Systems polyclonal IgG #AF902) was similarly tested with 200 nM as the highest inhibitor concentration.” left out, “The excitation and emission wavelengths were set at 328 nm and 393 nm, respectively.” left out, “Reactions were performed in duplicates and all data replicates were plotted in a single graph and fit to the following equation^1:” left out
Target sequence in this assay (P14780 107-444 limits assumed): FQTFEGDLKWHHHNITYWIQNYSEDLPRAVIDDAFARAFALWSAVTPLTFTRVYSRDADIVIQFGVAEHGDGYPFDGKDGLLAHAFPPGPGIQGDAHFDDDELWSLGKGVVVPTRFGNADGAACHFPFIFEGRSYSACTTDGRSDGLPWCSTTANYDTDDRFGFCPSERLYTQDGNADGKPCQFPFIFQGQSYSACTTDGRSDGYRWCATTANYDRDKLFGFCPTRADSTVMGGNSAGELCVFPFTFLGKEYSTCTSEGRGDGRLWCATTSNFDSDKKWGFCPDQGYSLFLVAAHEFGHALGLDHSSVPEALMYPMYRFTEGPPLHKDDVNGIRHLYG

T2 sequence (P33434 110-662): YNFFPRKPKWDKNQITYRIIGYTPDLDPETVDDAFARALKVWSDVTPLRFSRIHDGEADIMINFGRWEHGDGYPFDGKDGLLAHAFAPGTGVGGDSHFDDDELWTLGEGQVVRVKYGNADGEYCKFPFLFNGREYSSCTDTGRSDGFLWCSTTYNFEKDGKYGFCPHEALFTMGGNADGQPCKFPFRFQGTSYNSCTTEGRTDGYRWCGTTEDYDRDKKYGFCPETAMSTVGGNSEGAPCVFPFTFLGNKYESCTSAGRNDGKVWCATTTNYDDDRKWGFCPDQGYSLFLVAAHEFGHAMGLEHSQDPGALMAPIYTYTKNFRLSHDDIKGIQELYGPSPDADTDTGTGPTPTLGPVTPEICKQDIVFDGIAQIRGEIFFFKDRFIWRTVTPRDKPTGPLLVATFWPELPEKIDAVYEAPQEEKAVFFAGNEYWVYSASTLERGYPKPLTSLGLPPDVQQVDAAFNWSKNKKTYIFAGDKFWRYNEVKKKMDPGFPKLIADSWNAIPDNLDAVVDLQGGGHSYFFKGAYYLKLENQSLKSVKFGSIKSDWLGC
T4 sequence (P08253 110-446 limits assumed): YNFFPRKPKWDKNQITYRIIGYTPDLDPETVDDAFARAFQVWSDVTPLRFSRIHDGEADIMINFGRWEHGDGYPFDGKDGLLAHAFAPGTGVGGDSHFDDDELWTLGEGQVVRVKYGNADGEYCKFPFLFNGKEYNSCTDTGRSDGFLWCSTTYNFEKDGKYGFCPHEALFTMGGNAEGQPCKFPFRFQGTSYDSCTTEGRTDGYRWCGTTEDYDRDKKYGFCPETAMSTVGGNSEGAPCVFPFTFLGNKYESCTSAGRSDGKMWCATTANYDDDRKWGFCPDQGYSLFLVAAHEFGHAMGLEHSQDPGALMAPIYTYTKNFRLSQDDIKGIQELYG
T3 sequence (P41245 108-730): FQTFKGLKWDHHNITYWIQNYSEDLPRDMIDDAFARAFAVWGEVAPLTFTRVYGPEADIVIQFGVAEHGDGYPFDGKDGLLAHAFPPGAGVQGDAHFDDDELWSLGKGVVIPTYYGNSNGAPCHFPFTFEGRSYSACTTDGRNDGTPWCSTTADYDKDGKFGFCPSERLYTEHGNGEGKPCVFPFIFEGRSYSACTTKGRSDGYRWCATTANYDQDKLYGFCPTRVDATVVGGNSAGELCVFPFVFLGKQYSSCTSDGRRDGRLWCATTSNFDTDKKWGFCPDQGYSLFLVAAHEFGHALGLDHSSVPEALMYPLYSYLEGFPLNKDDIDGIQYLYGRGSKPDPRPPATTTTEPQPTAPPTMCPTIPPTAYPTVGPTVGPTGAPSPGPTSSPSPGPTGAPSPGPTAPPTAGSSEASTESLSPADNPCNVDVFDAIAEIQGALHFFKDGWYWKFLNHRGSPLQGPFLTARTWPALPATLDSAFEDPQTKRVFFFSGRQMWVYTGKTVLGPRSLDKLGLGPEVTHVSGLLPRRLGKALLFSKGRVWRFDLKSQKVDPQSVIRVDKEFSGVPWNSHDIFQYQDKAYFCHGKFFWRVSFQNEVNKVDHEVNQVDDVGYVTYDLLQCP

B1: M0078-G07: Fab that binds MMP-9 but does not inhibit (antibody, V domains shown)
VH: EVQLLESGGGLVQPGGSLRLSCAASGFTFSSYTMEWVRQAPGKGLEWVSWISPSGGYTFYADSVKGRFTISRDNSKNTLYLQMNSLRAEDTALYYCARGYSYGSIDLWGRGTLVTVSS
VL: QDIQMTQSPGTLSVSPGERATLSCRASQSVSSDLAWYQHKPGQAPRLLIYGVSTKATGVPARFSGSGSGTEFTLTISSLQSEDLAVYYCQQYHNWPPLTFGGGTKVEIK
- competition with TIMP-1 (MMP-9 [1]): does not compete with TIMP-1
- dissociation t1/2 (MMP-9 [1]): 25 min
- inhibition of the catalytic activity of MMP-9 (MMP-9 [2]): Neither antibody inhibits

B2: X0106-E04: germlined, optimized version of M0275-D03, IgG1 (antibody, V domains shown)
VH: EVQLLESGGGLVQPGGSLRLSCAASGFTFSQYDMWWVRQAPGKGLEWVSVIYPSGTTFYADSVKGRFTISRDNSKNTLYLQMNSLRAEDTAVYYCAKDRAYGDYVGWNGFDYWGQGTLVTVSS
VL: EIVLTQSPATLSLSPGERATLSCRASQSISSFLAWYQQKPGQAPRLLIYDASYRATGIPARFSGSGSGTDFTLTISSLEPEDFAVYYCQQRGNWPITFGQGTRLEIK
- Ki (mouse MMP-2): 3.9 nM

B3: M0076-D03: Fab that binds MMP-9 but does not inhibit (antibody, V domains shown)
VH: EVQLLESGGGLVQPGGSLRLSCAASGFTFSLYRMNWVRQAPGKGLEWVSYIGSSGGATAYADSVKGRFTISRDNSKNTLYLQMNSLRAEDTAVYYCARGAWYLDSWGQGTLVTVSS
VL: QDIQMTQSPSSLSASVGDRVTITCRASQGIRNDLDWYQQKPGTAPKRLIYSASNLQSGVPSRFSGSGSGTEFTLTISNLQPEDLATYFCLQHNSFPLTFGQGTKVEIK
- competition with TIMP-1 (MMP-9 [1]): does not compete with TIMP-1
- dissociation t1/2 (MMP-9 [1]): 33 min
- inhibition of the catalytic activity of MMP-9 (MMP-9 [2]): Neither antibody inhibits

B4: M0279-A03: MMP-9 specific antibody from light chain shuffling of M237-D02, sFab (antibody, V domains shown)
VH: EVQLLESGGGLVQPGGSLRLSCAASGFTFSQYPMWWVRQAPGKGLEWVSYIVPSGGRTYYADSVKGRFTISRDNSKNTLYLQMNSLRAEDTAVYYCAKDRAYGDYVGWNGFDYWGQGTLVTVSS
VL: QDIQMTQSPATLSVSPGERVTLSCKASHSISRNLAWYQQKPGQAPRLLIFGASTRATGIPARFSGSGSGTEFTLTISSLEAEDFAVYYCQQRRNWPVTFGPGTKLDFK
- inhibition of mouse MMP-9 (in words) (Mouse MMP-9): bind and inhibit
- inhibition of human MMP-2 (in words) (human MMP-2): do not inhibit
- inhibition of mouse MMP-2 (in words) (mouse MMP-2): do not inhibit
- inhibition of human MMP-9 (in words) (MMP-9 [3]): bind and inhibit

B5: X0106-C03: germlined, optimized version of M0274-G08, IgG1 (antibody, V domains shown)
VH: EVQLLESGGGLVQPGGSLRLSCAASGFTFSVYDMWWVRQAPGKGLEWVSVIYPSGGATYYADSVKGRFTISRDNSKNTLYLQMNSLRAEDTAVYYCAKDRAYGDYVGWNGFDYWGQGTLVTVSS
VL: EIVLTQSPATLSLSPGERATLSCRASQSISSFLAWYQQKPGQAPRLLIYDASYRATGIPARFSGSGSGTDFTLTISSLEPEDFAVYYCQQRGNWPITFGQGTRLEIK
- Ki (mouse MMP-2): 3.2 nM

B6: X0106-A01: germlined, optimized version of M0256-D11, IgG1 (antibody, V domains shown)
VH: EVQLLESGGGLVQPGGSLRLSCAASGFTFSHYDMWWVRQAPGKGLEWVSVIYSSGGPTFYADSVKGRFTISRDNSKNTLYLQMNSLRAEDTAVYYCAKDRAYGDYVGWNGFDYWGQGTLVTVSS
VL: EIVLTQSPATLSLSPGERATLSCRASQSISSFLAWYQQKPGQAPRLLIYDASYRATGIPARFSGSGSGTDFTLTISSLEPEDFAVYYCQQRGNWPITFGQGTRLEIK
- Ki (mouse MMP-2): 4.7 nM

B7: X0106-B02: germlined, optimized version of M0276-F11, IgG1 (antibody, V domains shown)
VH: EVQLLESGGGLVQPGGSLRLSCAASGFTFSWYDMWWVRQAPGKGLEWVSVIYSSGGPTFYADSVKGRFTISRDNSKNTLYLQMNSLRAEDTAVYYCAKDRAYGDYVGWNGFDYWGQGTLVTVSS
VL: EIVLTQSPATLSLSPGERATLSCRASQSISSFLAWYQQKPGQAPRLLIYDASYRATGIPARFSGSGSGTDFTLTISSLEPEDFAVYYCQQRGNWPITFGQGTRLEIK
- Ki (mouse MMP-2): 4.2 nM

B8: M0288-C08: MMP-9 specific antibody from light chain shuffling of M237-D02, sFab (antibody, V domains shown)
VH: EVQLLESGGGLVQPGGSLRLSCAASGFTFSQYPMWWVRQAPGKGLEWVSYIVPSGGRTYYADSVKGRFTISRDNSKNTLYLQMNSLRAEDTAVYYCAKDRAYGDYVGWNGFDYWGQGTLVTVSS
VL: QDIQMTQSPGTLSVSPGERVTLSCRASQSVSSYLAWYQQKPGQAPRLLIYGASTRVTGIPARFSGSGSGTEFTLTISSLQSEDFAVYYCQQRSSWPITFGQGTRLEIK
- inhibition of mouse MMP-9 (in words) (Mouse MMP-9): bind and inhibit
- inhibition of human MMP-2 (in words) (human MMP-2): do not inhibit
- inhibition of mouse MMP-2 (in words) (mouse MMP-2): do not inhibit
- inhibition of human MMP-9 (in words) (MMP-9 [3]): bind and inhibit

B9: X0106-F05: germlined, optimized version of M0307-F04, IgG1 (antibody, V domains shown)
VH: EVQLLESGGGLVQPGGSLRLSCAASGFTFSLYDMWWVRQAPGKGLEWVSVIYSSGGYTGYADSVKGRFTISRDNSKNTLYLQMNSLRAEDTAVYYCAKDRAYGDYVGWNGFDYWGQGTLVTVSS
VL: EIVLTQSPATLSLSPGERATLSCRASQSISSFLAWYQQKPGQAPRLLIYDASYRATGIPARFSGSGSGTDFTLTISSLEPEDFAVYYCQQRGNWPITFGQGTRLEIK
- Ki (mouse MMP-2): 3 nM
